B1: Nckap1l (Hem1), endogenous in murine DC2.4 cells (natural protein)
chain: MSLTSAYQLKLAEKLTILNDRGQGVLIRMYNIKKTCSDSKSKPPFLLEKSMESCLKYINKKFPNIDVRNSTQHLGPVHREKAEIIRFLTNYYQSFVDVMEFRDHVYELLNTIDACQCHFDINLNFDFTRSYLDLIVTYTSVILLLSRIEDRRILIGMYNCAHEMLHGHSDPSFARLGQMVLEYDHPLKKLTEEFGPHTKAVSGALLSLHFLFVRRNQGAEQWRSAQLLSLISSPPAMINPANSDTMACEYLSVEVMERWIIIGFLLCHGCLNSNSQCQKLWKLCLEGSLYITLIREDVLQVHKVTEDLFSSLKGYSKRVADIKESKEHAITNSGQFHCQRRQFLRTAVKELETVLNDEPGLLGPKALFAFMALSFIRDEVTWLVRHTENVTKTKTPEDYADSSIAELLFLLEEIRALVRRHIKVIQQYHLQYLARFDVLVLSDIIQNLSVCPEEESVIMSSFVSILSSLNLKQVDNEEKFDFSGLRLDWFRLQAYTSVSKAPLHLHENPDLAKVMNLIIFHSQMLDSVEKMLVETSDLSTFCFHLRTFEKMFATTLEEPTMLRYTIAFPLICAHFVHCVHEMCPEEYPHLKNHGLHHCNSFLEDLAKQTSNCVLEICAEQRNLNEQLLPKHCATTISKAKNKKSMKQRQAPRKGEPERDKPGAESHRKNRSLVTNMDKLHLNLTELALAMNHVHSFSVFEHTIFPSEYLSSHLEARLNRAIVTLAGYNATTQEILRPSELLAGVKAYISFIQSLAQFLGADASRIVRNALLQQTQPLDSSGEQTVTTLYTNWYLESLLRQASSGAIVLSPAMQAFISLPRDGEQNFSAEEFSDISEMRALAEILGPYGMKFLSENLMWHVTSQIVELKKLVVENMDILVQIRSNFSKPELMASLLPQLTGAENVLKRMTIIGVILSFRAMAQEGLQEVFSAHCPFLMGPIECLKEFVTPDTDIKVTLSVFELACAAGVSCDIDPALVAAIANLKADNSSPEEEYKVACLLLIFLAVSLPLLATDPSSFFSIEKDGYNNNIHCLTKAIIQVSAALFTLYNKNIETHLKEFLVVASVSLLQLGQETDKLKTRNRESISLLMRLVVEESPFLTLDMLESCFPYVLLRNAYREVSRAFYLNRLPASSH
B2: Brk1 (Hspc300), endogenous in murine DC2.4 cells (natural protein)
chain: MAGQEDPVQREIHQDWANREYIEIITSSIKKISDFLNSFDMSCRSRLATLNEKLTALERRIEYIEARVTKGETLT
B3: Abi3, endogenous in murine DC2.4 cells (natural protein)
chain: MAELQQLQQLQEFDIPTGREALRGNHSALLRVANYCEDNYLQATDKRKALEETMAFTTQALASVAYQVGNLAGHTLRMLDLQGAALRQVEAKMSTLGQMVNMHMEKVARREIGTLATVVRLPSNQKVIPPESLPSLTPYHRKPLNFACLDDIGHGVKDLSTQLSRTGTLSRKSIKAPATPVSATLGRPPRIPEPVQLPAVPDGKLSAASSASSLASAGSAEGASGIPQSKGQVAPATPPPPPVAPVTPPPPPLSAEVFLPPPPLEVSQPPLEAELPLPPPPALEGDELGLLPPPPPGFGPDEPSWVPASYLEKVVTLYPYTRQKDNELSFSEGTVICVTRRYSDGWCEGVSSEGTGFFPGNYVEPSC
B4: Sh3rf1, endogenous in murine DC2.4 cells (natural protein)
chain: MDESALLDLLECPVCLERLDASAKVLPCQHTFCKRCLLGIVGSRNELRCPECRTLVGSGVDELPSNILLVRLLDGIKQRPWKPGPGGGGGTTCTNTLRAQGSTVVNCGSKDLQSSQCGQQPRVQAWSPPVRGIPQLPCAKALYNYEGKEPGDLKFSKGDIIILRRQVDENWYHGEVSGVHGFFPTNFVQIIKPLPQPPPQCKALYDFEVKDKEADKDCLPFAKDDVLTVIRRVDENWAEGMLADKIGIFPISYVEFNSAAKQLIEWDKPPVPGVDTAECPSATAQSTSASKHPDTKKNTRKRHSFTSLTMANKSSQGSQNRHSMEISPPVLISSSNPTAAARISELSGLSCSAPSQVHISTTGLIVTPPPSSPVTTGPAFTFPSDVPYQAALGSMNPPLPPPPLLAATVLASTPSGATAAVAAAAAAAAAAGMGPRPVMGSSEQIAHLRPQTRPSVYVAIYPYTPRKEDELELRKGEMFLVFERCQDGWYKGTSMHTSKIGVFPGNYVAPVTRAVTNASQAKVSMSTAGQASRGVTMVSPSTAGGPTQKPQGNGVAGNPSVVPTAVVSAAHIQTSPQAKVLLHMSGQMTVNQARNAVRTVAAHSQERPTAAVTPIQVQNAACLGPASVGLPHHSLASQPLPPMAGPAAHGAAVSISRTNAPMACAAGASLASPNMTSAMLETEPSGRTVTILPGLPTSPESAASACGNSSAGKPDKDSKKEKKGLLKLLSGASTKRKPRVSPPASPTLDVELGAGEAPLQGAVGPELPLGGSHGRVGSCPTDGDGPVAAGTAALAQDAFHRKTSSLDSAVPIAPPPRQACSSLGPVMNEARPVVCERHRVVVSYPPQSEAELELKEGDIVFVHKKREDGWFKGTLQRNGKTGLFPGSFVENI

These binders were tested against TgWIP^(PRR3 mut), HA-tagged (Toxoplasma gondii) (assay: affinity purification with mass spectrometry; HA-tagged TgWIP variants pulled down by the HA tag from lysates of DC2.4 cells infected 4 h at MOI 7; host partners by mass spectrometry; values are negative fold changes in peptide counts of the mutant immunoprecipitations relative to TgWIP^WT).

Point of comparison: B2, negative fold change in peptide counts relative to TgWIP^WT 9 fold. Against it:
- B1 — lower, 4 fold
- B3 — lower, 7 fold
- B4 — lower, 6 fold

The binders below were run against TgWIP^(PRR2 mut), HA-tagged (Toxoplasma gondii) in the same assay as above.

Point of comparison: B1, negative fold change in peptide counts relative to TgWIP^WT 3 fold. Against it:
- B2 — higher, 4 fold
- B3 — the same, 3 fold
- B4 — higher, 10 fold

Each binder was assayed against TgWIP^(WIRS mut), HA-tagged (Toxoplasma gondii) in the same assay as above.

Point of comparison: B1, negative fold change in peptide counts relative to TgWIP^WT 2 fold. Against it:
- B2 — higher, 3 fold
- B3 — lower, 1 fold
- B4 — the same, 2 fold

The binders below were run against TgWIP^Y150A/Y199A, HA-tagged (Toxoplasma gondii) in the same assay as above.

Point of comparison: B2, negative fold change in peptide counts relative to TgWIP^WT 1 fold. Against it:
- B1 — the same, 1 fold
- B3 — the same, 1 fold
- B4 — higher, 2 fold
